{"source": "patent US20250223364A1", "about": "(DREN BIO, published 2025)", "key": {"[1]": {"target": "cynomolgus monkey Dectin-1 (cynomolgus monkey)", "test": "flow cytometry on cynomolgus monkey monocytes"}, "[2]": {"target": "Human monocytes (human) (UniProt Q9BXN2)", "test": "cell binding; human monocytes"}, "[3]": {"target": "HEK-Blue hDectin-1a cells (UniProt Q9BXN2)", "test": "cell binding; HEK-Blue hDectin-1a cells"}, "[4]": {"target": "HEK-Blue hDectin-1b cells (UniProt Q9BXN2)", "test": "cell binding; HEK-Blue hDectin-1b cells"}, "[5]": {"target": "HEK293F hDectin-1a FL (UniProt Q9BXN2)", "test": "cell binding; HEK293F hDectin-1a FL cells"}, "[6]": {"target": "T1, Dectin-1-expressing HEK cells (human, UniProt Q9BXN2 1-247)", "T1 chain": "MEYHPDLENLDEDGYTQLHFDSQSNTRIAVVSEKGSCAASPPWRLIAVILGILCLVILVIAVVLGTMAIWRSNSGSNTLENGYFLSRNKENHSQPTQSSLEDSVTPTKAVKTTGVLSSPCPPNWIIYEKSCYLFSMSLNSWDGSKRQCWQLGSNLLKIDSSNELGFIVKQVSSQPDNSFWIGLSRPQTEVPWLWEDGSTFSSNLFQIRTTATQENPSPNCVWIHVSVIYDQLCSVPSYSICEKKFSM", "test": "flow cytometry; HEK cells"}, "[7]": {"target": "T2, human Dectin-1 (isoform not given) (human, UniProt Q9BXN2 1-247)", "T2 construct": "whole, on cells; also called hDectin-1; Dectin-1 on human monocytes", "T2 sequence (looked up)": "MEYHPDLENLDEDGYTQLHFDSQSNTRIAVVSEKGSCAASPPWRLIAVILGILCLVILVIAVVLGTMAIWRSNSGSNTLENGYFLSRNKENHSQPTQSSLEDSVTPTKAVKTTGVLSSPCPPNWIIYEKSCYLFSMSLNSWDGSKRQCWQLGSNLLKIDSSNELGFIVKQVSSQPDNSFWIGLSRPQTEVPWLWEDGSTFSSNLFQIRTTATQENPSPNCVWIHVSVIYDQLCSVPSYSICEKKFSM", "test": "flow cytometry on HEK 293 cells stably overexpressing human Dectin-1"}, "[8]": {"target": "T3, cynomolgus monkey Dectin-1 (cynomolgus monkey, UniProt A0A2K5UXY6 35-281)", "T3 construct": "whole, on cells; also called cynomolgus Dectin-1; Dectin-1 on cynomolgus monkey monocytes", "T3 sequence": "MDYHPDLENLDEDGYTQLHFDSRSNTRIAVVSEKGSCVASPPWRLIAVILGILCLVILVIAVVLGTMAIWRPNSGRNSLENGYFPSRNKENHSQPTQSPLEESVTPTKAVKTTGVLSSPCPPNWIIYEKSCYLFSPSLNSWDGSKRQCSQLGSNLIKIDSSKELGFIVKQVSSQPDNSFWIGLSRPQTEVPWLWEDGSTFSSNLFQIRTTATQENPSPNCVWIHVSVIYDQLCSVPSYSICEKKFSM", "test": "flow cytometry on cynomolgus monkey monocytes"}}, "data": [{"molecule": "259931 commercial anti-Dectin-1 antibody", "values": [{"measurement": "EC50", "setting": "[1]", "result": 16, "unit": "nM"}]}, {"molecule": "15E2", "values": [{"measurement": "EC50", "setting": "[2]", "result": 0.6, "unit": "nM"}, {"measurement": "EC50", "setting": "[3]", "result": 1.2, "unit": "nM"}, {"measurement": "EC50", "setting": "[4]", "result": 9.3, "unit": "nM"}, {"measurement": "EC50", "setting": "[5]", "result": 1.4, "unit": "nM"}]}, {"molecule": "GE2", "values": [{"measurement": "EC50", "setting": "[2]", "result": 1.4, "unit": "nM"}, {"measurement": "EC50", "setting": "[3]", "result": 1.9, "unit": "nM"}, {"measurement": "EC50", "setting": "[4]", "result": 12, "unit": "nM"}, {"measurement": "EC50", "setting": "[5]", "result": 2.4, "unit": "nM"}]}, {"molecule": "15E2 commercial anti-Dectin-1 antibody", "values": [{"measurement": "EC50", "setting": "[1]", "result": 14, "unit": "nM"}]}, {"molecule": "2m24/RSV (bispecific antibody) chain 1: QVQLVQSGAEVKKPGASVKVSCKSSGYTFTDYYIHWVRQAPGQGLEWMGWINPNSGDTNYAQKFQGRITMTRDTSISTAYLELSRLRSDDTAVFYCARNSGSYSFGYWGQGTLVTVSS chain 2: DIQMTQSPSSVSASVGDRVTITCRASQGISSWLAWYQQKPGKAPKLLIFGASSLQSGVPSRFSGSGSGTDFTLTVSSLQPEDFATYYCQQAYSFPFTFGPGTKVDIE chain 3: QVTLRESGPALVKPTQTLTLTCTFSGFSLSTSGMSVGWIRQPPGKALEWLADIWWDDKKDYNPSLKSRLTISKDTSANQVVLKVTNMDPADTATYYCARSMITNWYFDVWGAGTTVTVSS chain 4: DIQMTQSPSTLSASVGDRVTITCKCQLSVGYMHWYQQKPGKAPKLLIYDTSKLASGVPSRFSGSGSGTAFTLTISSLQPDDFATYYCFQGSGYPFTFGGGTKLEIK", "values": [{"measurement": "EC50", "setting": "[6]", "result": 1.6, "unit": "nM"}]}, {"molecule": "Fab 2M24-mSA fusion protein (Fab, V domains shown) VH: QVQLVQSGAEVKKPGASVKVSCKSSGYTFTDYYIHWVRQAPGQGLEWMGWINPNSGDTNYAQKFQGRITMTRDTSISTAYLELSRLRSDDTAVFYCARNSGSYSFGYWGQGTLVTVSS VL: DIQMTQSPSSVSASVGDRVTITCRASQGISSWLAWYQQKPGKAPKLLIFGASSLQSGVPSRFSGSGSGTDFTLTVSSLQPEDFATYYCQQAYSFPFTFGPGTKVDIE", "values": [{"measurement": "EC50", "setting": "[7]", "result": 1.45, "unit": "nM"}]}, {"molecule": "anti-human Dectin-1 antibody clone 2M24 (mIgG1) (antibody, V domains shown) VH: QVQLVQSGAEVKKPGASVKVSCKSSGYTFTDYYIHWVRQAPGQGLEWMGWINPNSGDTNYAQKFQGRITMTRDTSISTAYLELSRLRSDDTAVFYCARNSGSYSFGYWGQGTLVTVSS VL: DIQMTQSPSSVSASVGDRVTITCRASQGISSWLAWYQQKPGKAPKLLIFGASSLQSGVPSRFSGSGSGTDFTLTVSSLQPEDFATYYCQQAYSFPFTFGPGTKVDIE", "values": [{"measurement": "EC50", "setting": "[8]", "result": 0.3, "unit": "nM"}]}]}
